# Experimental data taken from patent US20180135070A1 (BOARD OF TRUSTEES OF MICHIGAN STATE UNIVERSITY, published 2018).
# T1: MBP-JAZ9-8×His (recombinant, E. coli-expressed) (Arabidopsis, UniProt Q8W4J8 1-267, limits assumed)
# T1 construct: procedure cited from Katsir et al. 2008; also called Escherichia coli-expressed JAZ9 protein
# T1 sequence: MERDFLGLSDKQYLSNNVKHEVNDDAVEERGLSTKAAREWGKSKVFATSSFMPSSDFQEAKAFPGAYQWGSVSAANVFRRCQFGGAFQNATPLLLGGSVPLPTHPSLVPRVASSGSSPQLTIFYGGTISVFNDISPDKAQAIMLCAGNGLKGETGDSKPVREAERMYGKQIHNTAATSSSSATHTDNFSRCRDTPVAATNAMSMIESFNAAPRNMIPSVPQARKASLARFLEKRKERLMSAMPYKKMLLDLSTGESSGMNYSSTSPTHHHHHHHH
# B1: COI1A384V-4×c-Myc (plant-expressed) (receptor, not shown: small tags and cut ends)
# chain: MEDPDIKRCKLSCVATVDDVIEQVMTYITDPKDRDSASLVCRRWFKIDSETREHVTMALCYTATPDRLSRRFPNLRSLKLKGKPRAAMFNLIPENWGGYVTPWVTEISNNLRQLKSVHFRRMIVSDLDLDRLAKARADDLETLKLDKCSGFTTDGLLSIVTHCRKIKTLLMEESSFSEKDGKWLHELAQHNTSLEVLNFYMTEFAKISPKDLETIARNCRSLVSVKVGDFEILELVGFFKAAANLEEFCGGSLNEDIGMPEKYMNLVFPRKLCRLGLSYMGPNEMPILFPFAAQIRKLDLLYALLETEDHCTLIQKCPNLEVLETRNVIGDRGLEVLAQYCKQLKRLRIERGADEQGMEDEEGLVSQRGLIALAQGCQELEYMVVYVSDITNESLESIGTYLKNLCDFRLVLLDREERITDLPLDNGVRSLLIGCKKLRRFAFYLRQGGLTDLGLSYIGQYSPNVRWMLLGYVGESDEGLMEFSRGCPNLQKLEMRGCCFSERAIAAAVTKLPSLRYLWVQGYRASMTGQDLMQMARPYWNIELIPSRRVPEVNQQGEIREMEHPAHILAYYSLAGQRTDCPTTVRVLKEPI
# notes: In protein extracts of transgenic Arabidopsis (coi1-30 background); C-terminal 4×c-Myc tag; also called pCOI1:COI1A384V-4×c-Myc
# Biological target: T1, MBP-JAZ9-8×His (recombinant, E. …)
# Assay: Ni-resin pull-down of plant-expressed COI1-4×c-Myc with MBP-JAZ9-8×His, COR series, anti-c-Myc immunoblot
binder,measurement,value
B1,"fold higher COR concentration required for robust co-receptor formation, against COI1WT-JAZ9",~100 fold
